Fewer inactive variants are shown than the library holds.
B1: TPR 5TU (parent)
chain: GGAUCUUCUCGAUCUAACAAAAAAGACAAAUCUGCCACAAAGCUUGAGAGCAUCUUCGGAUGCAGAGGCGGCAGCCUUCGGUGGCGCGAUAGCGCCAACGUUCUCAACUAUGACACGCAAAACGCGUGCUCCGUUGAAUGGAGUUUAUCAUG

Variants of: B1
Experiment: polymerase ribozyme fitness, log enrichment relative to wild type (log ratio); higher = more active; in vitro selection for triplet polymerase activity
In short: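 Each subunit of a heterodimeric triplet polymerase ribozyme was mutagenized into a library by PCR, transcribed, and subjected to one round of in vitro selection, run in triplicate. Libraries were annealed with a biotinylated primer, the partner subunit and triplets, incubated frozen at −7 °C, and extended constructs were gel-excised, captured on streptavidin beads and recovered by RT-PCR. Input and output libraries were sequenced on Illumina, keeping genotypes with ≥10 input reads and ≥1 read per output. Fitness is log base 2 of genotype enrichment divided by wild-type enrichment, from inverse-variance-weighted replicate averages.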

| Variant | polymerase ribozyme fitness (log ratio) |
| --- | --- |
| GGAUCUUCUCGAUCUAACAAAAAAGACAAAUCUCCCACAAAGCUUGAGAGCAUCUUCAGAUGCAGAGCCGGCAGCCUUCGGUGACGCGAGAGCGCCAACGUUCUCAACUAUGACACGCAGAACGGGUGCUCCGUUGAAUGGAGUUUAUCAUG [G34C G58A G68C G84A U90G A120G C125G] | ≤ -4.2 |
| GGAUCUUCUCGAUCUAACAAAAAAGACAAAUCUACCACAAAGCUUGAGAGCAUCAUCGGAUGCAGAGGCGGCAGCCUUCGGUGGCGCGAUAGCGCCAACGUUCUCAACUAUGACACGCAAAACGCGUGCUCCGUUGAAUGGAGUUUAUCAUG [G34A U55A] | -2.46 |
| GGAUCUUCUCGAUCUAACAAAAAAGACAAAUCGGCCACAAAGCUUGAGAGCAUCUUCGGAUGCAGAGACGGCAGCCUUCGGUGGCGGGAUAGCGCCAACGUUCUCAAUUAUGACACGCACAACGCGUGCUCCGUUUAAUGGAGUUUAUCAUG [U33G G68A C87G C108U A120C G136U] | ≤ -4.2 |
| GGAUCUUCUCGAUCUAACAAAAAAGACAAAUCUACCACAAAGCUUGAGAGCAUCUUCGGAUGCAGAGGCGGCAGCCUGCGGUGGCUCGAUAGCGCCAACGUUCUCGACUAUGACGCGCAGAACGCGUGCUCCGUUGAAUGGAGUUUAUCAUG [G34A U78G G86U A106G A115G A120G] | ≤ -4.2 |
| GGAUCUUCUCGAUCUAACAAAAAAGACAAAUCUAACACAAAGCUUGAGAGCAUCUUCGGAUGCAGAGGCGGCAGCCUUCGGUCGCGCGAUAGCGCCAACGUUCUCUACUAUGACACGCAAAACGCGUGCUCCUUUGGAUGUAGUUUAUCAUG [G34A C35A G83C A106U G133U A137G G141U] | ≤ -4.2 |
| GGAUCUUCUCGAUCUAACAAAAAAGACAAAUCUUCCGCAAAGCUUGAGAUCAUCUUCGGAUGCAGAGGCGGCAGCCUUCGGUGGCGCGCUAACGCCAACGUUCUCAACUAUGACACGCAAAACGCGUGCUCCGUUGAUUGGAGUUUAUCAUG [G34U A37G G50U A89C G92A A138U] | ≤ -4.2 |
| GGAUCUUCUCGAUCUAACAAAAAAGACAAAUCGGCCACAAAGCUUGAGAGCAUCUUCGGAUGCAGAGGCGGCAGCCUUCCGUGGGGCGAUAGCGCCAACGUUCUCAACUAUGACACGCAAAACGCGUGCUCCGUUGAAUGGAGUUUAUCAUG [U33G G80C C85G] | ≤ -4.2 |
| GGAUCUUCUCGAUCUAACAAAAAAGACAAAUCGGCCACAAAGCUUGAGAGCAGUUUCAGAUGCAGAGGUGGCAGCCUUCGGUGGAGCGAUAGCGCCAACGUUCUCAACUAUGAUACGCAAAACGCGUGCUCCGUUGAAUGGAGUUUAUCAAG [U33G U53G C54U G58A C69U C85A C114U U151A] | ≤ -4.2 |
| GGAUCUUCUCGAUCUAACAAAAAAGACAAAUCUCCCACGAAGCUUGAGCGCAUCUUCGGAUGCAGAGGCGGCAGCCUUCGGUGGCGCGAUAGCGCCUACGUUCUCAACUAUGACACGCAAAACGCGUGCUCCGUUGAAUGGAGUUUAUCAUG [G34C A39G A49C A97U] | ≤ -4.2 |
| GGAUCUUCUCGAUCUAACAAAAAAGACAAAUCGGCCACAAAGCUUGAGAGCAUCUUCGGAUGCAAAGGCCGCAGCCUUCGGUGGCGCGAUAGCGCCAACGUUCUCAAUUAUGACACGCAAAACGCGUGCUCCGUUGAAUGGAGUUUAUCAUG [U33G G65A G70C C108U] | ≤ -4.2 |
| GGAUCUUCUCGAUCUAACAAAAAAGACAAAUCUCCCACAAAGCUAGAGACCCACUUCGGAUGCAGAGGCGGCAGCAUUCGAUGGCGCGAUAACGCCAACGUUCUGAACUAUGACACGCAAAACGCGUGCUCCGUUGAAUGGAGUUUAUCAUG [G34C U45A G50C A52C U53A C76A G81A G92A C105G] | ≤ -4.2 |
| GGAUCUUCUCGAUCUAACAAAAAAGACAAAUCUCCCACAAAGCUUGAGAGCAUCUUCGGAUGCAGAGGCGGCAGACUUCGGUGGCGCGAUAGCACCAACGUUCUCAAGUAUGACACGCAAAACGCGUGCACCGUUGAAUGGAGUUUAUCAUG [G34C C75A G94A C108G U130A] | ≤ -4.2 |
| GGAUCUUCUCGAUCUAACAAAAAAGACAAAUCUCCCACAAAGCUUGAGAGAAUCUUCACAUGCAGAGGCGGCAGCCUUCGGUGGCGCGAUAGCGCAAACGUUCUCAUCUAUGACACGCAAAACGCGUGCUCCGUUGAAUGGAGUUUAUCAUG [G34C C51A G58A G59C C96A A107U] | ≤ -4.2 |
| GGAUCUUCUCGAUCUAACAAAAAAGACAAAUCGGCCACAAAGCUUGAGAGCAUCUUCGGAUGCAGAGGCGGCAGCCUUCGGUGGCGCGAUAGCGCCAACGUUCUCAACUAUGACACGCAAAACACGUGCUCCGGUGAAUGGAGUUUAUCAUG [U33G G124A U134G] | ≤ -4.2 |
| GGAUCUUCUCGAUCUAACAAAAAAGACAAAUCUACCACAAAGCUUGAGAGCAUCUUCGGAUGCAGAGGCGCCAGCCUUCGGUGGCGCGAUAGCGCCAACGUUCUGAACUAUGACACGCAAAACGCGUGCUCCGUUGAAUGGAUUUUAUCAUG [G34A G71C C105G G143U] | ≤ -4.2 |
| GGAUCUUCUCGAUCUAACAAAAAAGACAAAUCUCCCACAAAGCUUGAGAGCGUCUUCGGAUGCAGAGGCGGCAGCCUUCGGUGACGCGAUAGCGCCAACGUUCUCAACAAUGACACGCAAAACGUGUGCUCCGUUGAAUGGAGUUUAUCAUG [G34C A52G G84A U109A C125U] | ≤ -4.2 |
| GGAUCUUCUCGAUCUAACAAAAAAGACAAAUCUACCACAAAGCUUGAGAGCAUCUUCGGAUGCAGAGGCGGCAGCCUUCGGUGGAGCGAUCGCGCCAACGUUGUCAACUAUGACACGCAAAACGCGUGCUCCGUUGAAUGGAGUUUAUCAUG [G34A C85A A91C C103G] | ≤ -4.2 |
| GGAUCUUCUCGAUCUAACAAAAAAGACAAAUCUACCACAAAGCUUAAGAGCAUCUUCGGAUGCAGAGGCGGCAGCGUUCGGUGGCGCGAUAGCGCCAACGUUCUCAACUAUGACACGCAAAACGCGUGCUCCGUUAAAUGGAGAUUAUCAUG [G34A G46A C76G G136A U144A] | ≤ -4.2 |
| GGAUCUUCUCGAUCUAACAAAAAAGACAAAUCUACCACAAAGCUUGAGAGCAUCUUCGGAUGCAGUGGCGGCAGUCUUCGGUGGCGCGAUAGCGCCAACGUUCUCAACUAUGACACGCAAAACGCGUGCUCCGUUGGAUGGAGUUUAUCAUG [G34A A66U C75U A137G] | ≤ -4.2 |

Source: the RNAGym collection of RNA variant scans (doi:10.1073/pnas.2313332121)
